We go through five molecules from patent US20150374794A1 (Novo Nordisk, published 2015).

Numbered stars: 1 amine (or outer) side, 2 acyl side, 3 side chain; on linkers, the order of the positions; unused ones are H or OH. Square brackets hold non-standard residues; d marks the D form. Side chains are listed from the residue outwards. Ends that are not written are not given here. * marks the point of attachment. C18 diacid = O=C(O)CCCCCCCCCCCCCCCCC(=O)*; γGlu = O=C(O)[C@H](CCC(=O)[*:2])N[*:1]; AEEA = NCCOCCOCC(=O)O; Aib = CC(C)(N)C(=O)O

In assay [1] the target is human GLP-1 receptor (human, UniProt P43220 24-463). Nature of the assay: cell-based or functional assay.
Assay [2] addresses human glucagon receptor (human, UniProt P47871 26-477). Nature of the assay: cell-based or functional assay.

human glucagon receptor, sequence (P47871 26-477): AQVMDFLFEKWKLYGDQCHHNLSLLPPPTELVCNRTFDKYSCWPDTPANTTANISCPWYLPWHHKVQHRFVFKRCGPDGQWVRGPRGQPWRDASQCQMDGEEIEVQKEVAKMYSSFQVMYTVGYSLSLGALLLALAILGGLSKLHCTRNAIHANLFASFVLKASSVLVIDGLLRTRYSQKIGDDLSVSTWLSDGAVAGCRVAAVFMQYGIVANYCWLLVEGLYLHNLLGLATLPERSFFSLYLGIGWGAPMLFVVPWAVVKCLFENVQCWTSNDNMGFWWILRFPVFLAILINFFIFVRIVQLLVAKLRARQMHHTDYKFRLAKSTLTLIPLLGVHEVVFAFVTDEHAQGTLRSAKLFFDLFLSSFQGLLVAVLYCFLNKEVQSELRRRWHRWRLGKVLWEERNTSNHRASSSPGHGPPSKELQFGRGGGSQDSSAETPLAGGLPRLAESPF

B1: N^ε21-(4S)-4-carboxy-4-[[(4S)-4-carboxy-4-[[2-[2-[2-[[2-[2-[2-[[(4S)-4-carboxy-4-(17-carboxyheptadecanoylamino)butanoyl]amino]ethoxy]ethoxy]acetyl]amino]ethoxy] … (peptide)
peptide: H[Aib]QGTFTSDLSKYLDSRRARK([γGlu-γGlu-AEEA-AEEA-γGlu-C18 diacid])FVQWLLST-NH2
modifications: N-terminus assumed
SMILES: CC(C)C[C@H](NC(=O)[C@H](Cc1ccc(O)cc1)NC(=O)[C@H](CCCCN)NC(=O)[C@H](CO)NC(=O)[C@H](CC(C)C)NC(=O)[C@H](CC(=O)O)NC(=O)[C@H](CO)NC(=O)[C@@H](NC(=O)[C@H](Cc1ccccc1)NC(=O)[C@@H](NC(=O)CNC(=O)[C@H](CCC(N)=O)NC(=O)C(C)(C)NC(=O)[C@@H](N)Cc1c[nH]cn1)[C@@H](C)O)[C@@H](C)O)C(=O)N[C@@H](CC(=O)O)C(=O)N[C@@H](CO)C(=O)N[C@@H](CCCNC(=N)N)C(=O)N[C@@H](CCCNC(=N)N)C(=O)N[C@@H](C)C(=O)N[C@@H](CCCNC(=N)N)C(=O)N[C@@H](CCCCNC(=O)CC[C@H](NC(=O)CC[C@H](NC(=O)COCCOCCNC(=O)COCCOCCNC(=O)CC[C@H](NC(=O)CCCCCCCCCCCCCCCCC(=O)O)C(=O)O)C(=O)O)C(=O)O)C(=O)N[C@@H](Cc1ccccc1)C(=O)N[C@H](C(=O)N[C@@H](CCC(N)=O)C(=O)N[C@@H](Cc1c[nH]c2ccccc12)C(=O)N[C@@H](CC(C)C)C(=O)N[C@@H](CC(C)C)C(=O)N[C@@H](CO)C(=O)N[C@H](C(N)=O)[C@@H](C)O)C(C)C
Take B1: the “EC50 GLP-1R, CRE luciferase reporter gene assay in BHK cells” value (“EC50 GLP-1R” below) in assay [1] was 0.044 nM. For the same molecule, the “EC50 GlucR, CRE luciferase reporter gene assay in BHK cells” value (“EC50 GlucR” for short) in assay [2] is 0.097 nM.

B2: N^ε29-[(4S)-4-carboxy-4-[[(4S)-4-carboxy-4-[[2-[2-[2-[[2-[2-[2-[[(4S)-4-carboxy-4-(17-carboxyheptadecanoylamino)butanoyl]amino]ethoxy]ethoxy]acetyl]amino]ethoxy … (peptide)
peptide: H[Aib]QGTFTSDLSKYLDTRRAQDFVRWLLSK([γGlu-γGlu-AEEA-AEEA-γGlu-C18 diacid])-NH2
modifications: N-terminus assumed
SMILES: CC(C)C[C@H](NC(=O)[C@H](CC(C)C)NC(=O)[C@H](Cc1c[nH]c2ccccc12)NC(=O)[C@H](CCCNC(=N)N)NC(=O)[C@@H](NC(=O)[C@H](Cc1ccccc1)NC(=O)[C@H](CC(=O)O)NC(=O)[C@H](CCC(N)=O)NC(=O)[C@H](C)NC(=O)[C@H](CCCNC(=N)N)NC(=O)[C@H](CCCNC(=N)N)NC(=O)[C@@H](NC(=O)[C@H](CC(=O)O)NC(=O)[C@H](CC(C)C)NC(=O)[C@H](Cc1ccc(O)cc1)NC(=O)[C@H](CCCCN)NC(=O)[C@H](CO)NC(=O)[C@H](CC(C)C)NC(=O)[C@H](CC(=O)O)NC(=O)[C@H](CO)NC(=O)[C@@H](NC(=O)[C@H](Cc1ccccc1)NC(=O)[C@@H](NC(=O)CNC(=O)[C@H](CCC(N)=O)NC(=O)C(C)(C)NC(=O)[C@@H](N)Cc1c[nH]cn1)[C@@H](C)O)[C@@H](C)O)[C@@H](C)O)C(C)C)C(=O)N[C@@H](CO)C(=O)N[C@@H](CCCCNC(=O)CC[C@H](NC(=O)CC[C@H](NC(=O)COCCOCCNC(=O)COCCOCCNC(=O)CC[C@H](NC(=O)CCCCCCCCCCCCCCCCC(=O)O)C(=O)O)C(=O)O)C(=O)O)C(N)=O
As for B2, the “EC50 GLP-1R” value in assay [1] worked out at 0.02 nM. Besides, the “EC50 GlucR” value in assay [2] was 0.19 nM.

B3: N^ε29-[(4S)-4-carboxy-4-[[(4S)-4-carboxy-4-[[2-[2-[2-[[2-[2-[2-[[(4S)-4-carboxy-4-(17-carboxyheptadecanoylamino)butanoyl]amino]ethoxy]ethoxy]acetyl]amino]ethoxy … (peptide)
peptide: H[Aib]QGTFTSDLSKYLDKRRAEDFVQWLLSK([γGlu-γGlu-AEEA-AEEA-γGlu-C18 diacid])-NH2
modifications: N-terminus assumed
SMILES: CC(C)C[C@H](NC(=O)[C@H](CC(C)C)NC(=O)[C@H](Cc1c[nH]c2ccccc12)NC(=O)[C@H](CCC(N)=O)NC(=O)[C@@H](NC(=O)[C@H](Cc1ccccc1)NC(=O)[C@H](CC(=O)O)NC(=O)[C@H](CCC(=O)O)NC(=O)[C@H](C)NC(=O)[C@H](CCCNC(=N)N)NC(=O)[C@H](CCCNC(=N)N)NC(=O)[C@H](CCCCN)NC(=O)[C@H](CC(=O)O)NC(=O)[C@H](CC(C)C)NC(=O)[C@H](Cc1ccc(O)cc1)NC(=O)[C@H](CCCCN)NC(=O)[C@H](CO)NC(=O)[C@H](CC(C)C)NC(=O)[C@H](CC(=O)O)NC(=O)[C@H](CO)NC(=O)[C@@H](NC(=O)[C@H](Cc1ccccc1)NC(=O)[C@@H](NC(=O)CNC(=O)[C@H](CCC(N)=O)NC(=O)C(C)(C)NC(=O)[C@@H](N)Cc1c[nH]cn1)[C@@H](C)O)[C@@H](C)O)C(C)C)C(=O)N[C@@H](CO)C(=O)N[C@@H](CCCCNC(=O)CC[C@H](NC(=O)CC[C@H](NC(=O)COCCOCCNC(=O)COCCOCCNC(=O)CC[C@H](NC(=O)CCCCCCCCCCCCCCCCC(=O)O)C(=O)O)C(=O)O)C(=O)O)C(N)=O
In the case of B3, in assay [1], the “EC50 GLP-1R” value was 0.028 nM. Besides, the “EC50 GlucR” value in assay [2] is 0.599 nM.

B4: N^ε28-[(4S)-4-carboxy-4-[[(4S)-4-carboxy-4-[[2-[2-[2-[[2-[2-[2-[[(4S)-4-carboxy-4-(17-carboxyheptadecanoylamino)butanoyl]amino]ethoxy]ethoxy]acetyl]amino]ethoxy … (peptide)
peptide: H[Aib]QGTFTSDLSKYLDSRRARDFVQWLLK([γGlu-γGlu-AEEA-AEEA-γGlu-C18 diacid])T-NH2
modifications: N-terminus assumed
SMILES: CC(C)C[C@H](NC(=O)[C@H](Cc1ccc(O)cc1)NC(=O)[C@H](CCCCN)NC(=O)[C@H](CO)NC(=O)[C@H](CC(C)C)NC(=O)[C@H](CC(=O)O)NC(=O)[C@H](CO)NC(=O)[C@@H](NC(=O)[C@H](Cc1ccccc1)NC(=O)[C@@H](NC(=O)CNC(=O)[C@H](CCC(N)=O)NC(=O)C(C)(C)NC(=O)[C@@H](N)Cc1c[nH]cn1)[C@@H](C)O)[C@@H](C)O)C(=O)N[C@@H](CC(=O)O)C(=O)N[C@@H](CO)C(=O)N[C@@H](CCCNC(=N)N)C(=O)N[C@@H](CCCNC(=N)N)C(=O)N[C@@H](C)C(=O)N[C@@H](CCCNC(=N)N)C(=O)N[C@@H](CC(=O)O)C(=O)N[C@@H](Cc1ccccc1)C(=O)N[C@H](C(=O)N[C@@H](CCC(N)=O)C(=O)N[C@@H](Cc1c[nH]c2ccccc12)C(=O)N[C@@H](CC(C)C)C(=O)N[C@@H](CC(C)C)C(=O)N[C@@H](CCCCNC(=O)CC[C@H](NC(=O)CC[C@H](NC(=O)COCCOCCNC(=O)COCCOCCNC(=O)CC[C@H](NC(=O)CCCCCCCCCCCCCCCCC(=O)O)C(=O)O)C(=O)O)C(=O)O)C(=O)N[C@H](C(N)=O)[C@@H](C)O)C(C)C
As to B4, the “EC50 GLP-1R” value in assay [1] was found to be 0.004 nM. Moreover, the “EC50 GlucR” value in assay [2] is 0.016 nM.

B5: N^ε24-[(4S)-4-carboxy-4-[[(4S)-4-carboxy-4-[[2-[2-[2-[[2-[2-[2-[[(4S)-4-carboxy-4-(17-carboxyheptadecanoylamino)butanoyl]amino]ethoxy]ethoxy]acetyl]amino]ethoxy … (peptide)
peptide: H[Aib]QGTFTSDLSKYLDSRRARDFVK([γGlu-γGlu-AEEA-AEEA-γGlu-C18 diacid])WLLST-NH2
modifications: N-terminus assumed
SMILES: CC(C)C[C@H](NC(=O)[C@H](Cc1ccc(O)cc1)NC(=O)[C@H](CCCCN)NC(=O)[C@H](CO)NC(=O)[C@H](CC(C)C)NC(=O)[C@H](CC(=O)O)NC(=O)[C@H](CO)NC(=O)[C@@H](NC(=O)[C@H](Cc1ccccc1)NC(=O)[C@@H](NC(=O)CNC(=O)[C@H](CCC(N)=O)NC(=O)C(C)(C)NC(=O)[C@@H](N)Cc1c[nH]cn1)[C@@H](C)O)[C@@H](C)O)C(=O)N[C@@H](CC(=O)O)C(=O)N[C@@H](CO)C(=O)N[C@@H](CCCNC(=N)N)C(=O)N[C@@H](CCCNC(=N)N)C(=O)N[C@@H](C)C(=O)N[C@@H](CCCNC(=N)N)C(=O)N[C@@H](CC(=O)O)C(=O)N[C@@H](Cc1ccccc1)C(=O)N[C@H](C(=O)N[C@@H](CCCCNC(=O)CC[C@H](NC(=O)CC[C@H](NC(=O)COCCOCCNC(=O)COCCOCCNC(=O)CC[C@H](NC(=O)CCCCCCCCCCCCCCCCC(=O)O)C(=O)O)C(=O)O)C(=O)O)C(=O)N[C@@H](Cc1c[nH]c2ccccc12)C(=O)N[C@@H](CC(C)C)C(=O)N[C@@H](CC(C)C)C(=O)N[C@@H](CO)C(=O)N[C@H](C(N)=O)[C@@H](C)O)C(C)C
On to B5, for which the “EC50 GLP-1R” value in assay [1] amounted to 0.006 nM. Further, the “EC50 GlucR” value in assay [2] came out at 0.06 nM.
